Source: article PMC11417369, “DNA sequence and chromatin differentiate sequence-specific transcription factor binding in the human malaria parasite Plasmodium falciparum”

B1: XGTACX_site5322 (dsDNA)
DNA 1: TATATATATATATGTAGTACTTTACAAAATAATTCG
DNA 2: CGAATTATTTTGTAAAGTACTACATATATATATATA
B2: XGTACX_site1944 (dsDNA)
DNA 1: TTCAAAAATATATAATGTACACAAATATAAAAGAAT
DNA 2: ATTCTTTTATATTTGTGTACATTATATATTTTTGAA
B3: XGTACX_site3287 (dsDNA)
DNA 1: TTTTACAATATTTTGTGTACTTATATTATGAGCTTA
DNA 2: TAAGCTCATAATATAAGTACACAAAATATTGTAAAA
B4: XGTACX_site8893 (dsDNA)
DNA 1: ATATATATATATATATGTACATATATATTGTTGATC
DNA 2: GATCAACAATATATATGTACATATATATATATATAT
B5: XGTACX_site6448 (dsDNA)
DNA 1: AATTTATATGTTTTGTGTACACAATTTATTAAATTA
DNA 2: TAATTTAATAAATTGTGTACACAAAACATATAAATT
B6: XGTACX_site17 (dsDNA)
DNA 1: TTTTACAAATATTACTGTACACATTTTCATATAATT
DNA 2: AATTATATGAAAATGTGTACAGTAATATTTGTAAAA
B7: XGTACX_site6588 (dsDNA)
DNA 1: AAAAATTGAATGATGTGTACTTAAAAGAATATAGAA
DNA 2: TTCTATATTCTTTTAAGTACACATCATTCAATTTTT
B8: XGTACX_site977 (dsDNA)
DNA 1: TTCAAATTGTTTATATGTACTTATAAAAATTGTCTG
DNA 2: CAGACAATTTTTATAAGTACATATAAACAATTTGAA
B9: XGTACX_site6785 (dsDNA)
DNA 1: ATATATGGAAAGAGTAGTACTATTATAGGGGTGTTA
DNA 2: TAACACCCCTATAATAGTACTACTCTTTCCATATAT
B10: XGTACX_site1598 (dsDNA)
DNA 1: CTAATAAAAAAAAAAAGTACATATGACAATATAAAG
DNA 2: CTTTATATTGTCATATGTACTTTTTTTTTTTATTAG
B11: XGTACX_site1814 (dsDNA)
DNA 1: TTAAGAATATTTTCATGTACTCATTTTTTTTGTTAT
DNA 2: ATAACAAAAAAAATGAGTACATGAAAATATTCTTAA
B12: XGTACX_site8237 (dsDNA)
DNA 1: TATAAAAATTAATATTGTACGTTTTATGAAAATAAA
DNA 2: TTTATTTTCATAAAACGTACAATATTAATTTTTATA
B13: XGTACX_site3520 (dsDNA)
DNA 1: ATATATATATATATATGTACTTATTTATCGTATTAT
DNA 2: ATAATACGATAAATAAGTACATATATATATATATAT
B14: XGTACX_site4379 (dsDNA)
DNA 1: AATTAAATAAATGTATGTACATAATAAATATGTATT
DNA 2: AATACATATTTATTATGTACATACATTTATTTAATT
B15: XGTACX_site2113 (dsDNA)
DNA 1: AAGATAAAATAATAAAGTACACATATAAATTGAAAA
DNA 2: TTTTCAATTTATATGTGTACTTTATTATTTTATCTT
B16: XGTACX_site3365 (dsDNA)
DNA 1: TATATGGGATATATGTGTACATATAAAATATGTATC
DNA 2: GATACATATTTTATATGTACACATATATCCCATATA
B17: XGTACX_site5662 (dsDNA)
DNA 1: TTATTCTAAAAAGGGTGTACACAAACGAATGGAAAA
DNA 2: TTTTCCATTCGTTTGTGTACACCCTTTTTAGAATAA
B18: XGTACX_site7381 (dsDNA)
DNA 1: TATCTTTATATATAGTGTACACATTAAACAAATCTC
DNA 2: GAGATTTGTTTAATGTGTACACTATATATAAAGATA
B19: XGTACX_site8319 (dsDNA)
DNA 1: AAAAAAATATTAATGTGTACATAATAATAACATATA
DNA 2: TATATGTTATTATTATGTACACATTAATATTTTTTT
B20: XGTACX_site2641 (dsDNA)
DNA 1: TATATATATTTAAGGTGTACATAAATAACAAAATAT
DNA 2: ATATTTTGTTATTTATGTACACCTTAAATATATATA
B21: XGTACX_site894 (dsDNA)
DNA 1: AATAATGTTATAAATTGTACGTGTATTATTCATTAC
DNA 2: GTAATGAATAATACACGTACAATTTATAACATTATT
B22: XGTACX_site5884 (dsDNA)
DNA 1: TCAAGTATTAAAATGGGTACATAAATATGTGTATAT
DNA 2: ATATACACATATTTATGTACCCATTTTAATACTTGA
B23: XGTACX_site1392 (dsDNA)
DNA 1: ATATGTAAAATATGGGGTACGAAGGTAGGTAGGTAA
DNA 2: TTACCTACCTACCTTCGTACCCCATATTTTACATAT
B24: XGTACX_site1387 (dsDNA)
DNA 1: AAAAAAAATTATATATGTACTTATTAATCCTTTTAT
DNA 2: ATAAAAGGATTAATAAGTACATATATAATTTTTTTT
B25: XGTACX_site3785 (dsDNA)
DNA 1: ATATACATATGTGTGTGTACTTATATCACATTTTTG
DNA 2: CAAAAATGTGATATAAGTACACACACATATGTATAT
B26: XGTACX_site8545 (dsDNA)
DNA 1: TTACACATGTTTAACTGTACACATAATAGCAATATT
DNA 2: AATATTGCTATTATGTGTACAGTTAAACATGTGTAA
B27: XGTACX_site2864 (dsDNA)
DNA 1: CCTATATAATTATAATGTACTTGTAAAAAATATAAC
DNA 2: GTTATATTTTTTACAAGTACATTATAATTATATAGG
B28: XGTACX_site7594 (dsDNA)
DNA 1: AGACGTAATAATTGTTGTACATAAAAAAATAAGAAA
DNA 2: TTTCTTATTTTTTTATGTACAACAATTATTACGTCT
B29: XGTACX_site2117 (dsDNA)
DNA 1: TATAATATATGTATATGTACTTATGTTGAGAAACAT
DNA 2: ATGTTTCTCAACATAAGTACATATACATATATTATA
B30: XGTACX_site4322 (dsDNA)
DNA 1: TTACGATACTTTAGGTGTACACAAATATACATGAAT
DNA 2: ATTCATGTATATTTGTGTACACCTAAAGTATCGTAA
B31: XGTACX_site1288 (dsDNA)
DNA 1: TAAAGAGTCATGTGGTGTACCTGCTTCACCACATAT
DNA 2: ATATGTGGTGAAGCAGGTACACCACATGACTCTTTA
B32: XGTACX_site8781 (dsDNA)
DNA 1: TAAATAAATTTGCACTGTACGCAAAAAAAAAAAAGA
DNA 2: TCTTTTTTTTTTTTGCGTACAGTGCAAATTTATTTA
B33: XGTACX_site4032 (dsDNA)
DNA 1: TTCATTTTTTATTATAGTACACATAATATTTGCAGA
DNA 2: TCTGCAAATATTATGTGTACTATAATAAAAAATGAA
B34: XGTACX_site8481 (dsDNA)
DNA 1: TCAATTTTTTAATGTTGTACTTTGTAAAAAAAAATA
DNA 2: TATTTTTTTTTACAAAGTACAACATTAAAAAATTGA
B35: XGTACX_site3357 (dsDNA)
DNA 1: AATATCCACATTAGGAGTACACAGCTAACTGTTTGA
DNA 2: TCAAACAGTTAGCTGTGTACTCCTAATGTGGATATT
B36: XGTACX_site7939 (dsDNA)
DNA 1: GGATTTTTCGAATCATGTACATATTTAATTAAAAAA
DNA 2: TTTTTTAATTAAATATGTACATGATTCGAAAAATCC
B37: XGTACX_site5109 (dsDNA)
DNA 1: TTTTTTTTTTTTTTTGGTACACATTTTGGTTAATGG
DNA 2: CCATTAACCAAAATGTGTACCAAAAAAAAAAAAAAA
B38: XGTACX_site4165 (dsDNA)
DNA 1: TTGTTTTTTTTTGGCTGTACGTTCATAAATTTTTTT
DNA 2: AAAAAAATTTATGAACGTACAGCCAAAAAAAAACAA
B39: XGTACX_site8830 (dsDNA)
DNA 1: AAATGCTAAAAATAGAGTACAGATAACGAAAAGTGT
DNA 2: ACACTTTTCGTTATCTGTACTCTATTTTTAGCATTT
B40: XGTACX_site7234 (dsDNA)
DNA 1: ATTTCCTTTTTCTGTTGTACTCATAAAATAATATGT
DNA 2: ACATATTATTTTATGAGTACAACAGAAAAAGGAAAT
B41: XGTACX_site366 (dsDNA)
DNA 1: TAATATTTCATTAGGTGTACACTACATAGTAGTAGA
DNA 2: TCTACTACTATGTAGTGTACACCTAATGAAATATTA
B42: XGTACX_site1573 (dsDNA)
DNA 1: TCCATTGTCACCTTTTGTACTTAAATTTTTTCCTCC
DNA 2: GGAGGAAAAAATTTAAGTACAAAAGGTGACAATGGA
B43: XGTACX_site3663 (dsDNA)
DNA 1: TTTTTTTCTTAAAGATGTACTTTTTTAAAATAATCT
DNA 2: AGATTATTTTAAAAAAGTACATCTTTAAGAAAAAAA

Each binder was assayed against T1, AP2-G D1 (Plasmodium falciparum, UniProt Q8I5I9 2123-2245) (assay: gcPBM; about 25 ug protein; PBS, 1% milk, 0.2 mg/ml BSA, salmon testes DNA, 0.03% Triton X-100). Conditions: tags: N-terminal GST (pGEX-4T-1), kept; label: surface-attached array probe.
T1 sequence: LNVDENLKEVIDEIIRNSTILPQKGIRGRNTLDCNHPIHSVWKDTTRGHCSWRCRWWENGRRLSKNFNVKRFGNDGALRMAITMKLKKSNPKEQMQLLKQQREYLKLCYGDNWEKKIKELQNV

Binder | binding signal
B1 | 12.1 ln median PBM intensity, better of two orientations
B2 | 12 ln median PBM intensity, better of two orientations
B3 | 12.2 ln median PBM intensity, better of two orientations
B4 | 11.8 ln median PBM intensity, better of two orientations
B5 | 12.6 ln median PBM intensity, better of two orientations
B6 | 12.2 ln median PBM intensity, better of two orientations
B7 | 11.8 ln median PBM intensity, better of two orientations
B8 | 11.8 ln median PBM intensity, better of two orientations
B9 | 11.7 ln median PBM intensity, better of two orientations
B10 | 12.1 ln median PBM intensity, better of two orientations
B11 | 12 ln median PBM intensity, better of two orientations
B12 | 11.9 ln median PBM intensity, better of two orientations
B13 | 11.9 ln median PBM intensity, better of two orientations
B14 | 11.7 ln median PBM intensity, better of two orientations
B15 | 11.8 ln median PBM intensity, better of two orientations
B16 | 11.8 ln median PBM intensity, better of two orientations
B17 | 12.6 ln median PBM intensity, better of two orientations
B18 | 12.4 ln median PBM intensity, better of two orientations
B19 | 11.9 ln median PBM intensity, better of two orientations
B20 | 12.3 ln median PBM intensity, better of two orientations
B21 | 11.8 ln median PBM intensity, better of two orientations
B22 | 12.1 ln median PBM intensity, better of two orientations

Binder | binding signal
B23 | 11.7 ln median PBM intensity, better of two orientations
B24 | 12 ln median PBM intensity, better of two orientations
B25 | 12 ln median PBM intensity, better of two orientations
B26 | 12.2 ln median PBM intensity, better of two orientations
B27 | 11.8 ln median PBM intensity, better of two orientations
B28 | 12.1 ln median PBM intensity, better of two orientations
B29 | 11.7 ln median PBM intensity, better of two orientations
B30 | 12.6 ln median PBM intensity, better of two orientations
B31 | 11.9 ln median PBM intensity, better of two orientations
B32 | 12.6 ln median PBM intensity, better of two orientations
B33 | 12.3 ln median PBM intensity, better of two orientations
B34 | 11.7 ln median PBM intensity, better of two orientations
B35 | 12.6 ln median PBM intensity, better of two orientations
B36 | 11.8 ln median PBM intensity, better of two orientations
B37 | 12 ln median PBM intensity, better of two orientations
B38 | 11.9 ln median PBM intensity, better of two orientations
B39 | 12.1 ln median PBM intensity, better of two orientations
B40 | 12.2 ln median PBM intensity, better of two orientations
B41 | 12.2 ln median PBM intensity, better of two orientations
B42 | 11.9 ln median PBM intensity, better of two orientations
B43 | 12 ln median PBM intensity, better of two orientations
